Experimental data taken from publication PMC12499416, “ATF3 Deficiency Exacerbates Ageing‐Induced Atherosclerosis and Clinical Intervention Strategy” (Advanced Science, 2025).

Biological target: T1, ATG7 (analyte of the surface plasmon resonance assay) (UniProt Q9D906 1-698)
T1 construct: ATG7 used for surface plasmon resonance; Source of the protein may stand in the Supporting Information
T1 sequence (looked up): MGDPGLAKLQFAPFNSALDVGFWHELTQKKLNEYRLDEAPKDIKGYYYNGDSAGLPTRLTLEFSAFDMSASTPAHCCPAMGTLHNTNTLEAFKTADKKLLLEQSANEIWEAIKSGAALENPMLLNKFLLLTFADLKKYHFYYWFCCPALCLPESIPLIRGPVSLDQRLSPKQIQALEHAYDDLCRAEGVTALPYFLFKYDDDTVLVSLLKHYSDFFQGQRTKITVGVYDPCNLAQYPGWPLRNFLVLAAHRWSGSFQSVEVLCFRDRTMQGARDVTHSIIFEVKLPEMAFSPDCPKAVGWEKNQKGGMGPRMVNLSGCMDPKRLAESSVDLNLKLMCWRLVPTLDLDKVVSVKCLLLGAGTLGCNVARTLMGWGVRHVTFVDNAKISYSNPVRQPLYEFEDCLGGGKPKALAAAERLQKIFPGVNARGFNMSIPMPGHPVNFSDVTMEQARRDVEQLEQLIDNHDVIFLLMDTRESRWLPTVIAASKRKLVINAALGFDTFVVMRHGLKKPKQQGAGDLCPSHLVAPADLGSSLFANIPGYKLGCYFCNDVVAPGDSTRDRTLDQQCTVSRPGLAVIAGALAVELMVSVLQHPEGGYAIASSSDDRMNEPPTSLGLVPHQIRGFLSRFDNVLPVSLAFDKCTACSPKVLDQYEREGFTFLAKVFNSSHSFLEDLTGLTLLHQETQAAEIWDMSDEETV
Experiment: SPR; ATF3 immobilized on the CM5 sensor chip, ATG7 as analyte
Details: both partners purified

B1: ATF3 immobilized on the CM5 sensor chip (natural protein)
chain: MMLQHPGQVSASEVSATAIVPCLSPPGSLVFEDFANLTPFVKEELRFAIQNKHLCHRMSSALESVTVNNRPLEMSVTKSEAAPEEDERKRRRRERNKIAAAKCRNKKKEKTECLQKESEKLESVNAELKAQIEELKNEKQHLIYMLNLHRPTCIVRAQNGRTPEDERNLFIQQIKEGTLQS
- Kd: 963 nM
